Measurements reported in patent US9091695B2, “Methods and systems for quantification of peptides and other analytes” (Laboratory Corporation of America Holdings, priority 2007, dated 2015).

Tests used:
[1] = Stock solution / internal standard solution storage stability; format: physicochemical
[2] = Autosampler stability of calibrators and quality control samples; format: physicochemical; conditions: stored in the autosampler at 10° C.
Protocol: The autosampler stability was evaluated using calibrators and quality control samples (LLOQ, mid-range and ULOQ using both pooled plasma and blank plasma calibrators). Duplicate curves were included with the batch. The first calibration curve was injected, then after 24 hours, the remaining quality control and calibration curve samples were injected. Both calibration curves were used to ascertain accuracy of pooled patient and blank plasma controls. The acceptability criteria is defined such that the standard curve back-fit data should be 80-120% at LLOQ, 85-115% at other concentrations of expected curve values. Mean accuracy of each quality control sample should be ≦±20% at the LLOQ and ≦±15% at all other levels.

Substance | Time stock solution is stable ([1]; frozen at −70° C.) | Time stable in the autosampler [2] [h] | Time internal standard solution is stable ([1]; refrigerated at 4° C.)
pGlu-His-Trp-Ser-Tyr-Gly-Leu-Arg-Pro-Gly-NH2 [GnRH] | up to 376 days | 24 | –
[(U-23C9, 15N)-Tyr5], [(U-23C6, 15N)-Leu7], [(U-19C5, 15N)-Pro9]-Gonadorelin [GnRH internal standard] | – | – | up to 51 days
